Drawing on the supplement of paper PMC10567573, this text covers protein stability index for 94 variants.

The labels stand for the following.
B1: GNB5 (parent)
chain: YYPSGDAFASGSDDATCRLYDLRA
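Note: lentivirally expressed fusions sorted by FACS into six bins by GFP to DsRed ratio, PSI derived from sequencing read proportions per bin multiplied by bin number.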

Variants of B1 are the subject of this data set. As to the kind of experiment: protein stability index of a GFP-peptide fusion (GPS, HEK-293T) (PSI 1-6); higher = more stable. As to conditions: c terminus: a fixed tail appended.
Take YYPSGDAFASGSDDATCRLYDLRH: the protein stability index turned out to be 2.24.

For YYPSGDAFASGSDDATCRLYDLRR, the protein stability index turned out to be 2.41.

As for YYPSGDAFASGSDDATCRLYDLRF, the protein stability index worked out at 2.07.

YYPSGDAFASGSDDATCRLYDLRL: the protein stability index was found to be 2.14.

As for YYPSGDAFASGSDDATCRLYDLRQ, the protein stability index amounted to 3.01.

With YYPSGDAFASGSDDATCRLYDLRN, the protein stability index came out at 2.79.

In the case of YYPSGDAFASGSDDATCRLYDLRV, the protein stability index was determined as 1.78.

With YYPSGDAFASGSDDATCRLYDLRD, the protein stability index came out at 2.62.

Turning to YYPSGDAFASGSDDATCRLYDLRP, the protein stability index came out at 2.34.

YYPSGDAFASGSDDATCRLYDLRM: the protein stability index amounted to 2.85.

With YYPSGDAFASGSDDATCRLYDLRE, the protein stability index is 2.27.

On to YYPSGDAFASGSDDATCRLYDLRI, for which the protein stability index is 1.9.

For the variant YYPSGDAFASGSDDATCRLYDLRK, the protein stability index is 2.43.

YYPSGDAFASGSDDATCRLYDLRG: the protein stability index is 2.7.

Regarding YYPSGDAFASGSDDATCRLYDLRW, the protein stability index is 2.

With YYPSGDAFASGSDDATCRLYDLRC, the protein stability index came to 2.3.

Turning to YYPSGDAFASGSDDATCRLYDLRS, the protein stability index stood at 2.32.

For YYPSGDAFASGSDDATCRLYDLRY, the protein stability index worked out at 2.22.

Turning to YYPSGDAFASGSDDATCRLYDLRT, the protein stability index is 2.86.

Take YYPSGDAFASGSDDATCRLYDLHA: the protein stability index was 2.87.

Regarding YYPSGDAFASGSDDATCRLYDLCA, the protein stability index came to 2.27.

Take YYPSGDAFASGSDDATCRLYDLMA: the protein stability index came out at 2.37.

For YYPSGDAFASGSDDATCRLYDLPA, the protein stability index came to 2.86.

Consider YYPSGDAFASGSDDATCRLYDLKA, for which the protein stability index was determined as 2.58.

As to YYPSGDAFASGSDDATCRLYDLNA, the protein stability index stood at 2.33.

On to YYPSGDAFASGSDDATCRLYDLEA, for which the protein stability index worked out at 3.14.

Turning to YYPSGDAFASGSDDATCRLYDLDA, the protein stability index was determined as 3.01.

Consider YYPSGDAFASGSDDATCRLYDLAA, for which the protein stability index is 2.47.

In the case of YYPSGDAFASGSDDATCRLYDLLA, the protein stability index was 2.03.

For the variant YYPSGDAFASGSDDATCRLYDLWA, the protein stability index is 2.15.

In the case of YYPSGDAFASGSDDATCRLYDLSA, the protein stability index came to 2.81.

For YYPSGDAFASGSDDATCRLYDLQA, the protein stability index was 2.47.

On to YYPSGDAFASGSDDATCRLYDLFA, for which the protein stability index stood at 2.27.

For the variant YYPSGDAFASGSDDATCRLYDLGA, the protein stability index amounted to 2.65.

For the variant YYPSGDAFASGSDDATCRLYDLYA, the protein stability index worked out at 2.01.

YYPSGDAFASGSDDATCRLYDLTA: the protein stability index was 2.18.

YYPSGDAFASGSDDATCRLYDLVA: the protein stability index is 2.03.

For the variant YYPSGDAFASGSDDATCRLYDLIA, the protein stability index was 2.37.

On to YYPSGDAFASGSDDATCRLADLRA, for which the protein stability index is 2.73.

Consider YYPSGDAFASGSDDATCRLIDLRA, for which the protein stability index was found to be 2.84.

As to YYPSGDAFASGSDDATCRLEDLRA, the protein stability index turned out to be 3.15.

Regarding YYPSGDAFASGSDDATCRLWDLRA, the protein stability index was determined as 2.33.

On to YYPSGDAFASGSDDATCRLNDLRA, for which the protein stability index came to 2.95.

In the case of YYPSGDAFASGSDDATCRLDDLRA, the protein stability index was determined as 3.13.

On to YYPSGDAFASGSDDATCRLHDLRA, for which the protein stability index is 2.42.

Regarding YYPSGDAFASGSDDATCRLPDLRA, the protein stability index came to 3.32.

YYPSGDAFASGSDDATCRLGDLRA: the protein stability index was 2.63.

Take YYPSGDAFASGSDDATCRLTDLRA: the protein stability index was determined as 2.65.

Consider YYPSGDAFASGSDDATCRLSDLRA, for which the protein stability index came to 2.87.

As to YYPSGDAFASGSDDATCRLFDLRA, the protein stability index stood at 2.4.

Turning to YYPSGDAFASGSDDATCRLCDLRA, the protein stability index was 2.26.

Regarding YYPSGDAFASGSDDATCRLVDLRA, the protein stability index came out at 2.9.

On to YYPSGDAFASGSDDATCRLQDLRA, for which the protein stability index came to 2.88.

As to YYPSGDAFASGSDDATCRLKDLRA, the protein stability index stood at 2.88.

Turning to YYPSGDAFASGSDDATCRLRDLRA, the protein stability index amounted to 3.13.

Regarding YYPSGDAFASGSDDATCRLMDLRA, the protein stability index is 2.77.

As to YYPSGDAFASGSDDATCRLLDLRA, the protein stability index turned out to be 2.6.

Regarding YYPSGDAFASGSDDATCYLYDLRA, the protein stability index came out at 2.49.

With YYPSGDAFASGSDDATCPLYDLRA, the protein stability index was 3.13.

Take YYPSGDAFASGSDDATCVLYDLRA: the protein stability index amounted to 2.67.

For the variant YYPSGDAFASGSDDATCTLYDLRA, the protein stability index came to 2.77.

For the variant YYPSGDAFASGSDDATCQLYDLRA, the protein stability index stood at 2.85.

As to YYPSGDAFASGSDDATCWLYDLRA, the protein stability index was 2.15.

Consider YYPSGDAFASGSDDATCNLYDLRA, for which the protein stability index is 2.54.

On to YYPSGDAFASGSDDATCSLYDLRA, for which the protein stability index worked out at 2.88.

In the case of YYPSGDAFASGSDDATCRLYNLRA, the protein stability index was 1.99.

YYPSGDAFASGSDDATCRLYMLRA: the protein stability index came to 2.23.

On to YYPSGDAFASGSDDATCRLYLLRA, for which the protein stability index was 2.02.

For YYPSGDAFASGSDDATCRLYPLRA, the protein stability index was found to be 2.52.

In the case of YYPSGDAFASGSDDATCRLYALRA, the protein stability index is 2.18.

Take YYPSGDAFASGSDDATCRLYTLRA: the protein stability index was 1.99.

On to YYPSGDAFASGSDDATCRLYILRA, for which the protein stability index is 2.41.

In the case of YYPSGDAFASGSDDATCRLYKLRA, the protein stability index amounted to 2.43.

Consider YYPSGDAFASGSDDATCRLYYLRA, for which the protein stability index worked out at 1.61.

As for YYPSGDAFASGSDDATCRLYHLRA, the protein stability index is 2.31.

Take YYPSGDAFASGSDDATCRLYWLRA: the protein stability index is 2.25.

Consider YYPSGDAFASGSDDATCRLYFLRA, for which the protein stability index was found to be 1.5.

On to YYPSGDAFASGSDDATCRLYRLRA, for which the protein stability index was 1.99.

For YYPSGDAFASGSDDATCRLYELRA, the protein stability index was determined as 2.47.

Turning to YYPSGDAFASGSDDATCRLYVLRA, the protein stability index was determined as 1.8.

In the case of YYPSGDAFASGSDDATCRLYGLRA, the protein stability index is 2.2.

Take YYPSGDAFASGSDDATCRLYCLRA: the protein stability index was 1.58.

Consider YYPSGDAFASGSDDATCRLYSLRA, for which the protein stability index came out at 1.89.

For YYPSGDAFASGSDDATCRLYQLRA, the protein stability index is 2.3.

For the variant YYPSGDAFASGSDDATCRMYDLRA, the protein stability index was determined as 2.5.

Turning to YYPSGDAFASGSDDATCRDYDLRA, the protein stability index stood at 3.34.

YYPSGDAFASGSDDATCRQYDLRA: the protein stability index worked out at 2.65.

In the case of YYPSGDAFASGSDDATCRHYDLRA, the protein stability index is 2.44.

Turning to YYPSGDAFASGSDDATCRIYDLRA, the protein stability index is 2.3.

With YYPSGDAFASGSDDATCRNYDLRA, the protein stability index turned out to be 2.72.

Regarding YYPSGDAFASGSDDATCRRYDLRA, the protein stability index stood at 2.55.

Regarding YYPSGDAFASGSDDATCRGYDLRA, the protein stability index stood at 2.9.

On to YYPSGDAFASGSDDATCRCYDLRA, for which the protein stability index turned out to be 2.66.

In the case of YYPSGDAFASGSDDATCRFYDLRA, the protein stability index was 2.33.
